Data on two molecules can be found in paper doi:10.1101/2021.02.25.432866 (bioRxiv, 2021).

The target of series [1] is mutant Huntingtin exon 1 fragment with Q71, unlabelled (Q71). The series can be described thus: FRET or BRET.
The series “FRET or BRET” concerns the molecule itself. Nature of the series: FRET or BRET. A general note: BRET reads energy transfer from a luciferase to a nearby fluorophore.

mutant Huntingtin exon 1 fragment with Q71, unlabelled (Q71), sequence (P42858 whole entry, change not shown, the tested form may be a part): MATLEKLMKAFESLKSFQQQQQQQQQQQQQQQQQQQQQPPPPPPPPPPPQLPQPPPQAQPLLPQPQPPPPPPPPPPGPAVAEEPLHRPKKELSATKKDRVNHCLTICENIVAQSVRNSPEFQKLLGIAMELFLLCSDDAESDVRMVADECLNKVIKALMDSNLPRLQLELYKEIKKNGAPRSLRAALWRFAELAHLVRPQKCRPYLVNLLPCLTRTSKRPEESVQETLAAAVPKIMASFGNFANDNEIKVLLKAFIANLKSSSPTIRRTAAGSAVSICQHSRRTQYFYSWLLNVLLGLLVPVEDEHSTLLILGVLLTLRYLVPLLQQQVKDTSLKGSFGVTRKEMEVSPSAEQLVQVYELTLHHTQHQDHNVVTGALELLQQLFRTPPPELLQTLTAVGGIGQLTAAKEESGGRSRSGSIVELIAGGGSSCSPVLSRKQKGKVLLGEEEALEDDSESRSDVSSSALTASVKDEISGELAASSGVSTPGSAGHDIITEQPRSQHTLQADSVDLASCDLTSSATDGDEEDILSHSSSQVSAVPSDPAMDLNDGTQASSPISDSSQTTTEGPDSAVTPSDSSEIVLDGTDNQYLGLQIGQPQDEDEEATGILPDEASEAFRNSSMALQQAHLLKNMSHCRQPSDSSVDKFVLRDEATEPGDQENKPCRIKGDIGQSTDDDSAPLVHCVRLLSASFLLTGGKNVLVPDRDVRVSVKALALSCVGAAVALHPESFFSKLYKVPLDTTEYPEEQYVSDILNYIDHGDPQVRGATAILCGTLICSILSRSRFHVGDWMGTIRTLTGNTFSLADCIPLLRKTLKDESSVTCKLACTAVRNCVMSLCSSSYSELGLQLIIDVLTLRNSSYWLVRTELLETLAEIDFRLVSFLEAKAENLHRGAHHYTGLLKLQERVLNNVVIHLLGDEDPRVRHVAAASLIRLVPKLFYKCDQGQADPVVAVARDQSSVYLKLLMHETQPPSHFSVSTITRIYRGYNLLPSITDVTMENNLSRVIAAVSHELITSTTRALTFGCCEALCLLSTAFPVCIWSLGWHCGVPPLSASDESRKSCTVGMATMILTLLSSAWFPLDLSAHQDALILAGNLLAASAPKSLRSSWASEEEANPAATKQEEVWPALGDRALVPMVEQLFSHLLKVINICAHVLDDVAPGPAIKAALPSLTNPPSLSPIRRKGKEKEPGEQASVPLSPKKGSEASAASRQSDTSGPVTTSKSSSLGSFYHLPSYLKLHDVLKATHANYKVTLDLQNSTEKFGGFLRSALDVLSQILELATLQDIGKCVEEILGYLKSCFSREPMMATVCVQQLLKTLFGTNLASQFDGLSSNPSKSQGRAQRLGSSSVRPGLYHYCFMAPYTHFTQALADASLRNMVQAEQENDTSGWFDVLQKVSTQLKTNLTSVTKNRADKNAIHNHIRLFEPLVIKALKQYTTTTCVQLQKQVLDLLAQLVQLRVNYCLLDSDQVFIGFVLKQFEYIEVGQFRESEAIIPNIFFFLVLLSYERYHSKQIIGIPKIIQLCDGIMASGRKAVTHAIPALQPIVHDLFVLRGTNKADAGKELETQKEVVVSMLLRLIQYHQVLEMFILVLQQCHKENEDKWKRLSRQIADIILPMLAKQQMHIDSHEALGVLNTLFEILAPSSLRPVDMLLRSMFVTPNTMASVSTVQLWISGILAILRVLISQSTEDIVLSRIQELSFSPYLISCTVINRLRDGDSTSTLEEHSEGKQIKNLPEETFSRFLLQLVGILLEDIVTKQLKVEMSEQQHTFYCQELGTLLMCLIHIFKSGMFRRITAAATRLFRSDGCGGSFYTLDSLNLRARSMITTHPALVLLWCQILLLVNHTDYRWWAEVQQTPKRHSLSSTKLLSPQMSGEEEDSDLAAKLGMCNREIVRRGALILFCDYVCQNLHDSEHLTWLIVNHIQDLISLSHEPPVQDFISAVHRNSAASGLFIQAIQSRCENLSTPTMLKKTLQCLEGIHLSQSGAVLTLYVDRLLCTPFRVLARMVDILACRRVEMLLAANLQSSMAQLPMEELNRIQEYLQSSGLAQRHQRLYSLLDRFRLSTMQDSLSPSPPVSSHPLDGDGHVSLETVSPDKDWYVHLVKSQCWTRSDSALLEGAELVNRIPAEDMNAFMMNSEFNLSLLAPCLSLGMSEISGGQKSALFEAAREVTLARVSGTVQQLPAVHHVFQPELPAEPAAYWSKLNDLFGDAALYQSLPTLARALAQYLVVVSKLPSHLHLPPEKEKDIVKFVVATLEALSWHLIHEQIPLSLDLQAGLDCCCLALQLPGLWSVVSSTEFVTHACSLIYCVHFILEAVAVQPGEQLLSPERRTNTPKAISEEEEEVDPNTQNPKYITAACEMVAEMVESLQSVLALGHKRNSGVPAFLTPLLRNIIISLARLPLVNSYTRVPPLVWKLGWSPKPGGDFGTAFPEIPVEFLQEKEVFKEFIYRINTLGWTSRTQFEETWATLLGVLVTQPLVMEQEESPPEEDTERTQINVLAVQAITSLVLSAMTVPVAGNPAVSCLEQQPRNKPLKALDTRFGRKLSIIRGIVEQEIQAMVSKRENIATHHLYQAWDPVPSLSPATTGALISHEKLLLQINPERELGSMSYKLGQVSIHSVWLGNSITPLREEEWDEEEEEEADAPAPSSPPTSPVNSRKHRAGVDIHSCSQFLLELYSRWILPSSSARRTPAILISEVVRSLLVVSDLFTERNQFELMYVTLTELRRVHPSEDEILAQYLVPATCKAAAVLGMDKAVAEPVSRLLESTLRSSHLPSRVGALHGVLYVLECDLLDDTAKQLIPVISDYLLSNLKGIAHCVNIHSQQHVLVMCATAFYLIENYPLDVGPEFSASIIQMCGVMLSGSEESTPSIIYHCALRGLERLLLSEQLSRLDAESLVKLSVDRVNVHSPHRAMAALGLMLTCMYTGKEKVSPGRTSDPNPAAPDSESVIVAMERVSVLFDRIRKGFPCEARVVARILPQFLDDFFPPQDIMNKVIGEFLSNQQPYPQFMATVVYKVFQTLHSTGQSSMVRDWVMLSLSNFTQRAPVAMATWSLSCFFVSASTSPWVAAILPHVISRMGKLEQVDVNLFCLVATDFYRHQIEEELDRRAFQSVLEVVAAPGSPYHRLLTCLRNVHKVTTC

For “DNAJB6b fused to mVenus-mCherry at its N-terminus (VC-DNAJB6) (from UniProt O75190-2 1-241) (natural protein)”, the FRET/donor ratio in aggregates with Q71 in series [1] came to 0.6.

B1: FUS R521C fused to mVenus-mCherry at its N-terminus (VC-FUSR521C) (natural protein)
chain: MASNDYTQQATQSYGAYPTQPGQGYSQQSSQPYGQQSYSGYSQSTDTSGYGQSSYSSYGQSQNTGYGTQSTPQGYGSTGGYGSSQSSQSSYGQQSSYPGYGQQPAPSSTSGSYGSSSQSSSYGQPQSGSYSQQPSYGGQQQSYGQQQSYNPPQGYGQQNQYNSSSGGGGGGGGGGNYGQDQSSMSSGGGSGGGYGNQDQSGGGGSGGYGQQDRGGRGRGGSGGGGGGGGGGYNRSSGGYEPRGRGGGRGGRGGMGGSDRGGFNKFGGPRDQGSRHDSEQDNSDNNTIFVQGLGENVTIESVADYFKQIGIIKTNKKTGQPMINLYTDRETGKLKGEATVSFDDPPSAKAAIDWFDGKEFSGNPIKVSFATRRADFNRGGGNGRGGRGRGGPMGRGGYGGGGSGGGGRGGFPSGGGGGGGQQRAGDWKCPNPTCENMNFSWRNECNQCKAPKPDGPGGGPGGSHMGGNYGDDRRGGRGGYDRGGYRGRGGDRGGFRGGRGGGDRGGFGPGKMDSRGEHRQDCRERPY
In the case of B1, in “FRET or BRET”, the “FRET/donor ratio in foci” value was roughly 0.66.
